These results are taken from article PMC4158885 (The EMBO Journal, 2014).

Data set [1] concerns the target ctPan2 PID (Pan3 interaction domain) as used for surface plasmon resonance and isothermal titration calorimetry (Chaetomium thermophilum). The data set can be described thus: SPR; ctPan3 PKC with ctPan2 PID; who was immobilised is not shown (Supplementary Fig S7A–C). For orientation: Surface plasmon resonance follows binding to a sensor surface in real time, without labels.

Data set [2] has the same target. The data set can be described thus: ITC; ctPan3 PKC with ctPan2 PID; low protein concentrations, which limits the accuracy of the Kd.
The target of data set [3] is T1, ctPan3 PKC (Chaetomium thermophilum, UniProt G0S0Y3 205-640).
T1 sequence: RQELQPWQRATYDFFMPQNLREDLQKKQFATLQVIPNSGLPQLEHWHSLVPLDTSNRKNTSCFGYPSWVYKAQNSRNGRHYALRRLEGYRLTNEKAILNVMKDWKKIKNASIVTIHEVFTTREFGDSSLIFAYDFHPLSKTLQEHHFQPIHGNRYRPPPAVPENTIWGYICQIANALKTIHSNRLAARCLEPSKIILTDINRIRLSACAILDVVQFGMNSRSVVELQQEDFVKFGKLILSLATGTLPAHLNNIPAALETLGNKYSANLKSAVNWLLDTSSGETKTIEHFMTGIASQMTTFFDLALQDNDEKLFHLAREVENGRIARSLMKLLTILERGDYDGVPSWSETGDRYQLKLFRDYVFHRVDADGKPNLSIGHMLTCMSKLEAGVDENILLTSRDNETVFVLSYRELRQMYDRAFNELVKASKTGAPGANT
Put plainly: fluorescence polarization; 1 mM Mg2+; possible G-quadruplex complicates interpretation; FP: 10 mM Tris pH 8.0, 50 mM NaCl, 1 mM MgCl2, 5 mM beta-mercaptoethanol, 20 nM RNA, temperature not stated; EMSA: deadenylation assay buffer (composition not in material), 0.1-3 uM complex, 40 ng RNA in 10 ul, 15 min RT; NMR: 150 uM protein, 150 uM RNA (HSQC). To be noted: protein: recombinant, tags: GST-TEV construct (pGEX-TEV), chain copies: 2, label: 5' Cy3. On the technique in general: Fluorescence polarisation rises when a labelled molecule tumbles more slowly, as on binding a larger partner.

Data set [4] deals with T1, ctPan3 PKC. The data set can be described thus: fluorescence polarization; 1 mM Mg2+; FP: 10 mM Tris pH 8.0, 50 mM NaCl, 1 mM MgCl2, 5 mM beta-mercaptoethanol, 20 nM RNA, temperature not stated; EMSA: deadenylation assay buffer (composition not in material), 0.1-3 uM complex, 40 ng RNA in 10 ul, 15 min RT; NMR: 150 uM protein, 150 uM RNA (HSQC). Particulars: protein: recombinant; tags: GST-TEV construct (pGEX-TEV); chain copies: 2; label: 5' Cy3.

For data set [5], the target named is T2, scPan3 zinc finger (Saccharomyces cerevisiae, UniProt P36102 1-41).
T2 chain: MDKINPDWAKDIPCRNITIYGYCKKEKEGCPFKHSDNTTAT
The data set can be described thus: NMR titration; Zn2+; apparent Kd per residue: 62 ± 4, 93 ± 11, 100 ± 13 (peaks of Trp8, Ala9, Asn16); FP: 10 mM Tris pH 8.0, 50 mM NaCl, 1 mM MgCl2, 5 mM beta-mercaptoethanol, 20 nM RNA, temperature not stated; EMSA: deadenylation assay buffer (composition not in material), 0.1-3 uM complex, 40 ng RNA in 10 ul, 15 min RT; NMR: 150 uM protein, 150 uM RNA (HSQC). Particulars: protein: recombinant; tags: lipoyl domain/His fusion removed by TEV. (In general: A gel shift assay detects complexes by their altered migration in electrophoresis.)

For data set [6], the target named is T2, scPan3 zinc finger. The data set can be described thus: NMR chemical shift perturbation; Zn2+; negligible changes; FP: 10 mM Tris pH 8.0, 50 mM NaCl, 1 mM MgCl2, 5 mM beta-mercaptoethanol, 20 nM RNA, temperature not stated; EMSA: deadenylation assay buffer (composition not in material), 0.1-3 uM complex, 40 ng RNA in 10 ul, 15 min RT; NMR: 150 uM protein, 150 uM RNA (HSQC). To be noted: protein: recombinant; tags: lipoyl domain/His fusion removed by TEV.

For another data set, the target named is ctPan2 E899A;ctPan3 PKC (Chaetomium thermophilum;Chaetomium …, UniProt G0SAK8;G0S0Y3 1-1170;205-640, E899A|). The data set can be described thus: fluorescence polarization; 1 mM Mg2+; FP: 10 mM Tris pH 8.0, 50 mM NaCl, 1 mM MgCl2, 5 mM beta-mercaptoethanol, 20 nM RNA, temperature not stated; EMSA: deadenylation assay buffer (composition not in material), 0.1-3 uM complex, 40 ng RNA in 10 ul, 15 min RT; NMR: 150 uM protein, 150 uM RNA (HSQC). Particulars: protein: recombinant;recombinant; tags: Strep-II, His;GST-TEV construct (pGEX-TEV); copies: 1;2; label: 5' Cy3.

Data set [7] addresses T3, Saccharomyces cerevisiae Pan2 (scPan2), full length, of the recombinant scPan2–Pan3 complex (Saccharomyces cerevisiae, UniProt P53010 1-1115).
T3 construct: Pan2, Saccharomyces cerevisiae
T3 sequence (looked up): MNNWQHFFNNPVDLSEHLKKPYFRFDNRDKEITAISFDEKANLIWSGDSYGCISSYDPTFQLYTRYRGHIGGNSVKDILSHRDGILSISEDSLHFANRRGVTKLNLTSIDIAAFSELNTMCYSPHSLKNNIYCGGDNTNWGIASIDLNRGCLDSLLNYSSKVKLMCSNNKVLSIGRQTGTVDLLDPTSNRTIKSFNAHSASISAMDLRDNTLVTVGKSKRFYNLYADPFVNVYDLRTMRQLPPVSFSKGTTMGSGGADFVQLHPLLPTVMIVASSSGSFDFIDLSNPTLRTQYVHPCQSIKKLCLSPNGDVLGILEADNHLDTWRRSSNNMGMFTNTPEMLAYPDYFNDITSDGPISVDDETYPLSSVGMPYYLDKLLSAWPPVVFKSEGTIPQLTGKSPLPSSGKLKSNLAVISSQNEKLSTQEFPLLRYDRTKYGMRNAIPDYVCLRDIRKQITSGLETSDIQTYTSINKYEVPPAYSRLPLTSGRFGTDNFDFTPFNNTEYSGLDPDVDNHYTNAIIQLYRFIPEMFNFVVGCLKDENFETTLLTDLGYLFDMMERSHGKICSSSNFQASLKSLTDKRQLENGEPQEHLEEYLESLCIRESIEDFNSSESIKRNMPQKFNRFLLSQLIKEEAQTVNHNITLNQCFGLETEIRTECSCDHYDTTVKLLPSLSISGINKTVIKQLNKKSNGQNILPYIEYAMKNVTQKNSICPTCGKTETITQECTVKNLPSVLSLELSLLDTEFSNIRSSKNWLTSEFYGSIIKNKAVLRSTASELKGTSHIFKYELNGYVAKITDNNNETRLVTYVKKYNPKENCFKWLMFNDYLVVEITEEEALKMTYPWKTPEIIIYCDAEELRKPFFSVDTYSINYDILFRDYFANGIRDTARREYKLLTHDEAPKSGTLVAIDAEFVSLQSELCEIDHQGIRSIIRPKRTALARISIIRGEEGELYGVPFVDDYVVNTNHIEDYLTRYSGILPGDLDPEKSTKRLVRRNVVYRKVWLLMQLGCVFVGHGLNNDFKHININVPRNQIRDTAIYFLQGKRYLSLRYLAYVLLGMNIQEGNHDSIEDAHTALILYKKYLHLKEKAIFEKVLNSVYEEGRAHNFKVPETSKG
Put plainly: native MS; nanoESI-MS of the purified recombinant scPan2–Pan3 complex (5.5 mg/ml), buffer-exchanged into 200 mM ammonium acetate pH 8.0. Particulars: both partners purified.

Data set [8] deals with the molecule itself. The description is as above.

In turn, “ctPan3 pseudokinase/C-terminal domain (PKC, residues 205–640), purified from E. coli (from UniProt G0S0Y3 205-640) (domain or fragment)” returned a Kd in [1] of 0.01 µM. For the same molecule, in data set [2], the Kd came to 0.05 µM, the dH was -126 kJ/mol and the stoichiometry N (Pan2 chain per Pan3 dimer) stood at 1.
For GGGGGGGGGGGGGGG (ssRNA) [Cy3-G15 RNA], the Kd with ctPan3 PKC [3] worked out at 0.55 ± 0.05 µM.
In the case of UUUUUUUUUUUUUUU (ssRNA) [Cy3-U15 RNA], the Kd with ctPan3 PKC [4] was determined as 1.6 ± 0.6 µM.
With AAAAAAAAAAAAAAA (ssRNA) [polyA15 RNA (NMR)], the Kd with scPan3 zinc finger [5] is roughly 77.5 µM.
Consider CCCCCCCCCCCCCCC (ssRNA) [C15 RNA (NMR)], for which the binding result in the data set with scPan3 zinc finger [6] is “no binding”.
As for AAAAAAAAAAAAAAAAAAAAAAAAA (ssRNA) [Cy3-A25 RNA], the Kd with ctPan3 PKC [4] was determined as 0.62 ± 0.06 µM; with ctPan2 E899A;ctPan3 PKC it was 0.27 ± 0.02 µM.
As for AAAAAAAAAAAAAAA (ssRNA) [Cy3-A15 RNA], the Kd in the data set with ctPan3 PKC [4] amounted to 2.1 ± 1.4 µM.

B1: Saccharomyces cerevisiae Pan3 (scPan3), full length, of the recombinant scPan2–Pan3 complex (natural protein, UniProt P36102 1-679, looked up)
chain: MDKINPDWAKDIPCRNITIYGYCKKEKEGCPFKHSDNTTATTINDVPPPIDVGEATTPTMTSVPKFNAKVSASFTPMTVGSDSLTTVTNTTSAATNATGNIAMAATSATASTVNPMINPIVNSSLVNNNNNNSNISISIPTTASSSNYDPFNAPIFTPSSTSSIHTNANAHSFPFPSIANSGGININATDDNSNNMSMANNVPPPMQPPPIESSNLKYPRIYPPPHSLLQYHLYAPEQPSSLKSLLKPNERSADQLFIPNNIREDLTKKNLSILQVFPSSGKVIPSIVQDYFNLVPLNFNNNDFLNKTTLFKVFSNYDGKAYVLKRLPNIDKSMNPNKISKIYQIWSKINCTNLIKFRDIFQTTKFGDLSICLVFDYYPNSLSLYDYHFVNFPKFPITNNYLWIYLVQLTNVINSIHSQNLSIGNTLNWRKVLITGDPGRIKLSHCNFMDLLFNDDTDTVVSSGGSTIEGQQQLDYKYLGELLFNLSINIENSNNNTAPKEYRLEEITPQSIDDMRQIDDKFKDVLKYLISDNGDSKKSIHDLTSHFYDKMFMVLESSQTYTEYMESVLSRELENGRLFRLVNKLNCIFGRIESRIDINWSESGTKFPIILFYDYVFHQVDSNGKPIMDLTHVLRCLNKLDAGIQEKLMLVTPDELNCIIISYKELKDLIESTFRSITQ
notes: Pan3, Saccharomyces cerevisiae; Two copies stand in the scPan2–Pan3 heterotrimer by nanoESI-MS
In the case of B1, the stoichiometry N – broadly, the number of molecules, sites or subunits per partner or assembly – in data set [7] was 2 scPan3 per scPan2. In [8], the binding result is listed as “binds”.
With UUUUUUUUUUUUUUU (ssRNA) [U15 RNA (NMR)], the binding result in the data set with scPan3 zinc finger [6] is given as “no binding”.
For CCCCCCCCCCCCCCC (ssRNA) [Cy3-C15 RNA], the Kd with ctPan3 PKC [4] came out at 2.2 ± 1.7 µM.
